Data as given in article PMC9973045, “The Drug-Induced Interface That Drives HIV-1 Integrase Hypermultimerization and Loss of Function” (mBio, 2023).

Target: the molecule itself
Experiment: SEC-MALS; SEC-MALLS of isolated CTDs; Superdex-75 Increase 10/300; 0.5 M NaCl, 25 mM Tris-HCl pH 7.5, 3 mM NaN3, 0.5 mM TCEP; 25°C; loaded at 8, 4, 2, 1 or 0.5 mg/mL; dimer to monomers

B1: isolated HIV-1 IN CTD (wild type), IN residues 220 to 270 (domain or fragment)
chain: IQNFRVYYRDSRDPVWKGPAKLLWKGEGAVVIQDNSDIKVVPRRKAKIIRD
notes: HIV-1 integrase (IN) carboxyl-terminal domain, residues 220 to 270, lacking the C-terminal tail; numbers count on: the mature integrase (IN residues); A prior drug-free HIV-1 IN CTD structure is cited as PDB 6T6E; also called carboxyl-terminal domain; source: E. coli BL21-CodonPlus (DE3), purified (Ni-NTA, HiTrap SP, SEC); not shown: His6-Sumo, N-terminal, cleaved
- stoichiometry N: 2
